The values below come from article doi:10.1101/2023.03.16.532763 (bioRxiv, 2023).

The assay has as its target purified full-length Polθ (UniProt O75417 1-2590). Put plainly: co-IP.

Sequence of purified full-length Polθ (O75417 whole entry): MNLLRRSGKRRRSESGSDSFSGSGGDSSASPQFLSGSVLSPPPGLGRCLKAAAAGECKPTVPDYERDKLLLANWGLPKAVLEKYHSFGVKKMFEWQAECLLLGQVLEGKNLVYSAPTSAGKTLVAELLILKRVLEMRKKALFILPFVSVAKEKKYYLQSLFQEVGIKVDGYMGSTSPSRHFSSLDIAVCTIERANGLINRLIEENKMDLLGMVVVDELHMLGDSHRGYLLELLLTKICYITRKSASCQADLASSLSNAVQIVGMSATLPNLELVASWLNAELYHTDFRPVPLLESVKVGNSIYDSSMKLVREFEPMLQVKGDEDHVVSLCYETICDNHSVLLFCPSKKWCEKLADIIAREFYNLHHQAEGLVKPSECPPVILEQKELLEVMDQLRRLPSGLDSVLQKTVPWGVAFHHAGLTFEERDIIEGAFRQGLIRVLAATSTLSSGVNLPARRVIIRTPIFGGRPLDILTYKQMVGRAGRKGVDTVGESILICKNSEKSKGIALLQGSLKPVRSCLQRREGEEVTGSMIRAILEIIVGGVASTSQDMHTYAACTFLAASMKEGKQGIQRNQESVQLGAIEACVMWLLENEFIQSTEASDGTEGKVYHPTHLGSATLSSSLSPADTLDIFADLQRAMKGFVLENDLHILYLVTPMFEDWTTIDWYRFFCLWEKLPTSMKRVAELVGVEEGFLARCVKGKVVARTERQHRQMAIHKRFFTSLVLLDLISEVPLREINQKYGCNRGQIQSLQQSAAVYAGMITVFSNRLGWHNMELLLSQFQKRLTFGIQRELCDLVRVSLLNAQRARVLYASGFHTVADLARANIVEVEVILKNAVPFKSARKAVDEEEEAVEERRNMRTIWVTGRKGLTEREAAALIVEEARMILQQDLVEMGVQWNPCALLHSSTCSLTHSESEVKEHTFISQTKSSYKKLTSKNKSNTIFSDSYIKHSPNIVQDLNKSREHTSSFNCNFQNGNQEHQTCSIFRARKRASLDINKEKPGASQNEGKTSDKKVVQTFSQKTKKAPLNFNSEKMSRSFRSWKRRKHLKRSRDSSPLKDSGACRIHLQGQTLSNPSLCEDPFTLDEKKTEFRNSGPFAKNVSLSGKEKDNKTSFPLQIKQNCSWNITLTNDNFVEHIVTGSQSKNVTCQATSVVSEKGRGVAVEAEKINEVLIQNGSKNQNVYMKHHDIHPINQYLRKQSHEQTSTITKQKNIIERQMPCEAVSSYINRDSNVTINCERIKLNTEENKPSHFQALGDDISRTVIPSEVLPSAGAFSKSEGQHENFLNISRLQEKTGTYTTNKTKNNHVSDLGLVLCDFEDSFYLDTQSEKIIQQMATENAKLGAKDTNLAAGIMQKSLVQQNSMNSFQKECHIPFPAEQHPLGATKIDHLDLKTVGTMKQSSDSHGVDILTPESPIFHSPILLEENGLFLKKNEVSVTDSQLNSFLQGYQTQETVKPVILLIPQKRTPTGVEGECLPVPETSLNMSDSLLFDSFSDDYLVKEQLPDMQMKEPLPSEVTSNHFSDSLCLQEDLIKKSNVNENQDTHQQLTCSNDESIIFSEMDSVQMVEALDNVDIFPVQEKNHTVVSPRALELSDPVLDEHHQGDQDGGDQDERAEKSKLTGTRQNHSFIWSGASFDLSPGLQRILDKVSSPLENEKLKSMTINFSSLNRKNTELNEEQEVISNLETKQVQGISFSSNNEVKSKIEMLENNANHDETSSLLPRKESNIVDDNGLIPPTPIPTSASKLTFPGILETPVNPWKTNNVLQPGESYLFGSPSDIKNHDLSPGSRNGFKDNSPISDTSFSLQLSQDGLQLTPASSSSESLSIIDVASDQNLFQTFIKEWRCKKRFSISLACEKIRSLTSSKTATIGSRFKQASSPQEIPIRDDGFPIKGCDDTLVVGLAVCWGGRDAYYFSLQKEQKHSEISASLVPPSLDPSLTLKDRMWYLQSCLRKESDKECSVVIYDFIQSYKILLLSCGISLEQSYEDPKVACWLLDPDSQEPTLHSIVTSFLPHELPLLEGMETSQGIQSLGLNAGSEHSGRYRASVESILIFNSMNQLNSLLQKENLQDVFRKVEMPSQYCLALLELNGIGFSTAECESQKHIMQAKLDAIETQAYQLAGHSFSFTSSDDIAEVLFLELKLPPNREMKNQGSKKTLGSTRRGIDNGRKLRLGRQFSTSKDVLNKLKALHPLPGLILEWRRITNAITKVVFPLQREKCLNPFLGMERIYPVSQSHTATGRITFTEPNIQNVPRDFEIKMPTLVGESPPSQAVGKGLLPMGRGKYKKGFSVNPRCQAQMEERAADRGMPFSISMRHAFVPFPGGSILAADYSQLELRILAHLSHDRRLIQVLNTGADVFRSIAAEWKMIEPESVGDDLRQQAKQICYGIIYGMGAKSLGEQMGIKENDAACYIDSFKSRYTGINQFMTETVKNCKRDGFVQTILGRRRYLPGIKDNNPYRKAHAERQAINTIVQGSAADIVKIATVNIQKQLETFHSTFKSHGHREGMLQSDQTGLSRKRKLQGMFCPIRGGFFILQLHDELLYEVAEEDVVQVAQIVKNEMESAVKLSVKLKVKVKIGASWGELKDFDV

B1: purified recombinant human RHINO protein (natural protein, UniProt Q9BSD3 1-238, looked up)
chain: MPPRKKRRQPSQKAPLLFHQQPLEGPKHSCASTQLPITHTRQVPSKPIDHSTITSWVSPDFDTAAGSLFPAYQKHQNRARHSSRKPTTSKFPHLTFESPQSSSSETLGIPLIRECPSESEKDVSRRPLVPVLSPQSCGNMSVQALQSLPYVFIPPDIQTPESSSVKEELIPQDQKENSLLSCTLHTGTPNSPEPGPVLVKDTPEDKYGIKVTWRRRQHLLAYLRERGKLSRSQFLVKS
Turning to B1, the binding result is “binds”.
